Laboratory results taken from patent US20180155451A1 (published 2018).

B1: GpH7-A5/GpH7-B3 variant Q295_05P/GpL16-k0 (antibody, human IgG1, kappa)
heavy 1: not shown
heavy 2: not shown
light: DIVMTQSPLSLPVTPGEPASISCQASESLVHSNRNTYLHWYLQKPGQSPQLLIYKVSNRFSGVPDRFSGSGSGTDFTLKISRVEAEDVGVYYCSQNTHVPPTFGQGTKVEIERTVAAPSVFIFPPSDEQLKSGTASVVCLLNNFYPREAKVQWKVDNALQSGNSQESVTEQDSKDSTYSLSSTLTLSKADYEKHKVYACEVTHQGLSSPVTKSFNRGEC
notes: also called He Ab Q295_05P
B2: GpH7-A5/GpH7-B3 variant T335_19Q/GpL16-k0 (antibody, human IgG1, kappa)
heavy 1: not shown
heavy 2: not shown
light: DIVMTQSPLSLPVTPGEPASISCQASESLVHSNRNTYLHWYLQKPGQSPQLLIYKVSNRFSGVPDRFSGSGSGTDFTLKISRVEAEDVGVYYCSQNTHVPPTFGQGTKVEIERTVAAPSVFIFPPSDEQLKSGTASVVCLLNNFYPREAKVQWKVDNALQSGNSQESVTEQDSKDSTYSLSSTLTLSKADYEKHKVYACEVTHQGLSSPVTKSFNRGEC
notes: also called He Ab T335_19Q
B3: GpH7-A5/GpH7-B3 variant T335_07I/GpL16-k0 (antibody, human IgG1, kappa)
heavy 1: not shown
heavy 2: not shown
light: DIVMTQSPLSLPVTPGEPASISCQASESLVHSNRNTYLHWYLQKPGQSPQLLIYKVSNRFSGVPDRFSGSGSGTDFTLKISRVEAEDVGVYYCSQNTHVPPTFGQGTKVEIERTVAAPSVFIFPPSDEQLKSGTASVVCLLNNFYPREAKVQWKVDNALQSGNSQESVTEQDSKDSTYSLSSTLTLSKADYEKHKVYACEVTHQGLSSPVTKSFNRGEC
notes: also called He Ab T335_07I
B4: GpH7-A5/GpH7-B3 variant S324_06M/GpL16-k0 (antibody, human IgG1, kappa)
heavy 1: not shown
heavy 2: not shown
light: DIVMTQSPLSLPVTPGEPASISCQASESLVHSNRNTYLHWYLQKPGQSPQLLIYKVSNRFSGVPDRFSGSGSGTDFTLKISRVEAEDVGVYYCSQNTHVPPTFGQGTKVEIERTVAAPSVFIFPPSDEQLKSGTASVVCLLNNFYPREAKVQWKVDNALQSGNSQESVTEQDSKDSTYSLSSTLTLSKADYEKHKVYACEVTHQGLSSPVTKSFNRGEC
notes: also called He Ab S324_06M
B5: GpH7-A5/GpH7-B3 variant S324_02A/GpL16-k0 (antibody, human IgG1, kappa)
heavy 1: not shown
heavy 2: not shown
light: DIVMTQSPLSLPVTPGEPASISCQASESLVHSNRNTYLHWYLQKPGQSPQLLIYKVSNRFSGVPDRFSGSGSGTDFTLKISRVEAEDVGVYYCSQNTHVPPTFGQGTKVEIERTVAAPSVFIFPPSDEQLKSGTASVVCLLNNFYPREAKVQWKVDNALQSGNSQESVTEQDSKDSTYSLSSTLTLSKADYEKHKVYACEVTHQGLSSPVTKSFNRGEC
notes: also called He Ab S324_02A
B6: GpH7-A5/GpH7-B3 variant S267_02A/GpL16-k0 (antibody, human IgG1, kappa)
heavy 1: not shown
heavy 2: not shown
light: DIVMTQSPLSLPVTPGEPASISCQASESLVHSNRNTYLHWYLQKPGQSPQLLIYKVSNRFSGVPDRFSGSGSGTDFTLKISRVEAEDVGVYYCSQNTHVPPTFGQGTKVEIERTVAAPSVFIFPPSDEQLKSGTASVVCLLNNFYPREAKVQWKVDNALQSGNSQESVTEQDSKDSTYSLSSTLTLSKADYEKHKVYACEVTHQGLSSPVTKSFNRGEC
notes: also called He Ab S267_02A
B7: GpH7-A5/GpH7-B3 variant S337_09D/GpL16-k0 (antibody, human IgG1, kappa)
heavy 1: not shown
heavy 2: not shown
light: DIVMTQSPLSLPVTPGEPASISCQASESLVHSNRNTYLHWYLQKPGQSPQLLIYKVSNRFSGVPDRFSGSGSGTDFTLKISRVEAEDVGVYYCSQNTHVPPTFGQGTKVEIERTVAAPSVFIFPPSDEQLKSGTASVVCLLNNFYPREAKVQWKVDNALQSGNSQESVTEQDSKDSTYSLSSTLTLSKADYEKHKVYACEVTHQGLSSPVTKSFNRGEC
notes: also called He Ab S337_09D
B8: GpH7-A5/GpH7-B3 variant S239_09D/GpL16-k0 (antibody, human IgG1, kappa)
heavy 1: not shown
heavy 2: not shown
light: DIVMTQSPLSLPVTPGEPASISCQASESLVHSNRNTYLHWYLQKPGQSPQLLIYKVSNRFSGVPDRFSGSGSGTDFTLKISRVEAEDVGVYYCSQNTHVPPTFGQGTKVEIERTVAAPSVFIFPPSDEQLKSGTASVVCLLNNFYPREAKVQWKVDNALQSGNSQESVTEQDSKDSTYSLSSTLTLSKADYEKHKVYACEVTHQGLSSPVTKSFNRGEC
notes: also called He Ab S239_09D
B9: GpH7-A5/GpH7-B3 variant S324_09D/GpL16-k0 (antibody, human IgG1, kappa)
heavy 1: not shown
heavy 2: not shown
light: DIVMTQSPLSLPVTPGEPASISCQASESLVHSNRNTYLHWYLQKPGQSPQLLIYKVSNRFSGVPDRFSGSGSGTDFTLKISRVEAEDVGVYYCSQNTHVPPTFGQGTKVEIERTVAAPSVFIFPPSDEQLKSGTASVVCLLNNFYPREAKVQWKVDNALQSGNSQESVTEQDSKDSTYSLSSTLTLSKADYEKHKVYACEVTHQGLSSPVTKSFNRGEC
notes: also called He Ab S324_09D
B10: GpH7-A5/GpH7-B3 variant S337_14T/GpL16-k0 (antibody, human IgG1, kappa)
heavy 1: not shown
heavy 2: not shown
light: DIVMTQSPLSLPVTPGEPASISCQASESLVHSNRNTYLHWYLQKPGQSPQLLIYKVSNRFSGVPDRFSGSGSGTDFTLKISRVEAEDVGVYYCSQNTHVPPTFGQGTKVEIERTVAAPSVFIFPPSDEQLKSGTASVVCLLNNFYPREAKVQWKVDNALQSGNSQESVTEQDSKDSTYSLSSTLTLSKADYEKHKVYACEVTHQGLSSPVTKSFNRGEC
notes: also called He Ab S337_14T
B11: GpH7-A5/GpH7-B3 variant T335_16H/GpL16-k0 (antibody, human IgG1, kappa)
heavy 1: not shown
heavy 2: not shown
light: DIVMTQSPLSLPVTPGEPASISCQASESLVHSNRNTYLHWYLQKPGQSPQLLIYKVSNRFSGVPDRFSGSGSGTDFTLKISRVEAEDVGVYYCSQNTHVPPTFGQGTKVEIERTVAAPSVFIFPPSDEQLKSGTASVVCLLNNFYPREAKVQWKVDNALQSGNSQESVTEQDSKDSTYSLSSTLTLSKADYEKHKVYACEVTHQGLSSPVTKSFNRGEC
notes: also called He Ab T335_16H
B12: GpH7-A5/GpH7-B3 variant T335_13S/GpL16-k0 (antibody, human IgG1, kappa)
heavy 1: not shown
heavy 2: not shown
light: DIVMTQSPLSLPVTPGEPASISCQASESLVHSNRNTYLHWYLQKPGQSPQLLIYKVSNRFSGVPDRFSGSGSGTDFTLKISRVEAEDVGVYYCSQNTHVPPTFGQGTKVEIERTVAAPSVFIFPPSDEQLKSGTASVVCLLNNFYPREAKVQWKVDNALQSGNSQESVTEQDSKDSTYSLSSTLTLSKADYEKHKVYACEVTHQGLSSPVTKSFNRGEC
notes: also called He Ab T335_13S
B13: GpH7-A5/GpH7-B3 variant T335_10E/GpL16-k0 (antibody, human IgG1, kappa)
heavy 1: not shown
heavy 2: not shown
light: DIVMTQSPLSLPVTPGEPASISCQASESLVHSNRNTYLHWYLQKPGQSPQLLIYKVSNRFSGVPDRFSGSGSGTDFTLKISRVEAEDVGVYYCSQNTHVPPTFGQGTKVEIERTVAAPSVFIFPPSDEQLKSGTASVVCLLNNFYPREAKVQWKVDNALQSGNSQESVTEQDSKDSTYSLSSTLTLSKADYEKHKVYACEVTHQGLSSPVTKSFNRGEC
notes: also called He Ab T335_10E
B14: GpH7-A5/GpH7-B3 variant Q295_07I/GpL16-k0 (antibody, human IgG1, kappa)
heavy 1: not shown
heavy 2: not shown
light: DIVMTQSPLSLPVTPGEPASISCQASESLVHSNRNTYLHWYLQKPGQSPQLLIYKVSNRFSGVPDRFSGSGSGTDFTLKISRVEAEDVGVYYCSQNTHVPPTFGQGTKVEIERTVAAPSVFIFPPSDEQLKSGTASVVCLLNNFYPREAKVQWKVDNALQSGNSQESVTEQDSKDSTYSLSSTLTLSKADYEKHKVYACEVTHQGLSSPVTKSFNRGEC
notes: also called He Ab Q295_07I
B15: GpH7-A5/GpH7-B3 variant S337_10E/GpL16-k0 (antibody, human IgG1, kappa)
heavy 1: not shown
heavy 2: not shown
light: DIVMTQSPLSLPVTPGEPASISCQASESLVHSNRNTYLHWYLQKPGQSPQLLIYKVSNRFSGVPDRFSGSGSGTDFTLKISRVEAEDVGVYYCSQNTHVPPTFGQGTKVEIERTVAAPSVFIFPPSDEQLKSGTASVVCLLNNFYPREAKVQWKVDNALQSGNSQESVTEQDSKDSTYSLSSTLTLSKADYEKHKVYACEVTHQGLSSPVTKSFNRGEC
notes: also called He Ab S337_10E
B16: GpH7-A5/GpH7-B3 variant S324_10E/GpL16-k0 (antibody, human IgG1, kappa)
heavy 1: not shown
heavy 2: not shown
light: DIVMTQSPLSLPVTPGEPASISCQASESLVHSNRNTYLHWYLQKPGQSPQLLIYKVSNRFSGVPDRFSGSGSGTDFTLKISRVEAEDVGVYYCSQNTHVPPTFGQGTKVEIERTVAAPSVFIFPPSDEQLKSGTASVVCLLNNFYPREAKVQWKVDNALQSGNSQESVTEQDSKDSTYSLSSTLTLSKADYEKHKVYACEVTHQGLSSPVTKSFNRGEC
notes: also called He Ab S324_10E
B17: GpH7-A5/GpH7-B3 variant S324_20W/GpL16-k0 (antibody, human IgG1, kappa)
heavy 1: not shown
heavy 2: not shown
light: DIVMTQSPLSLPVTPGEPASISCQASESLVHSNRNTYLHWYLQKPGQSPQLLIYKVSNRFSGVPDRFSGSGSGTDFTLKISRVEAEDVGVYYCSQNTHVPPTFGQGTKVEIERTVAAPSVFIFPPSDEQLKSGTASVVCLLNNFYPREAKVQWKVDNALQSGNSQESVTEQDSKDSTYSLSSTLTLSKADYEKHKVYACEVTHQGLSSPVTKSFNRGEC
notes: also called He Ab S324_20W
B18: GpH7-A5/GpH7-B3 variant T335_01G/GpL16-k0 (antibody, human IgG1, kappa)
heavy 1: not shown
heavy 2: not shown
light: DIVMTQSPLSLPVTPGEPASISCQASESLVHSNRNTYLHWYLQKPGQSPQLLIYKVSNRFSGVPDRFSGSGSGTDFTLKISRVEAEDVGVYYCSQNTHVPPTFGQGTKVEIERTVAAPSVFIFPPSDEQLKSGTASVVCLLNNFYPREAKVQWKVDNALQSGNSQESVTEQDSKDSTYSLSSTLTLSKADYEKHKVYACEVTHQGLSSPVTKSFNRGEC
notes: also called He Ab T335_01G
B19: GpH7-A5/GpH7-B3 variant S337_16H/GpL16-k0 (antibody, human IgG1, kappa)
heavy 1: not shown
heavy 2: not shown
light: DIVMTQSPLSLPVTPGEPASISCQASESLVHSNRNTYLHWYLQKPGQSPQLLIYKVSNRFSGVPDRFSGSGSGTDFTLKISRVEAEDVGVYYCSQNTHVPPTFGQGTKVEIERTVAAPSVFIFPPSDEQLKSGTASVVCLLNNFYPREAKVQWKVDNALQSGNSQESVTEQDSKDSTYSLSSTLTLSKADYEKHKVYACEVTHQGLSSPVTKSFNRGEC
notes: also called He Ab S337_16H
B20: GpH7-A5/GpH7-B3 variant T335_15Y/GpL16-k0 (antibody, human IgG1, kappa)
heavy 1: not shown
heavy 2: not shown
light: DIVMTQSPLSLPVTPGEPASISCQASESLVHSNRNTYLHWYLQKPGQSPQLLIYKVSNRFSGVPDRFSGSGSGTDFTLKISRVEAEDVGVYYCSQNTHVPPTFGQGTKVEIERTVAAPSVFIFPPSDEQLKSGTASVVCLLNNFYPREAKVQWKVDNALQSGNSQESVTEQDSKDSTYSLSSTLTLSKADYEKHKVYACEVTHQGLSSPVTKSFNRGEC
notes: also called He Ab T335_15Y

biological target: T1, FcγRIIa H (human, UniProt P12318 34-217); test: SPR Biacore, relative binding
T1 construct: extracellular domain; also called FcgRIIa H type; 2aH; not shown: His tag at the C terminus
T1 sequence (looked up): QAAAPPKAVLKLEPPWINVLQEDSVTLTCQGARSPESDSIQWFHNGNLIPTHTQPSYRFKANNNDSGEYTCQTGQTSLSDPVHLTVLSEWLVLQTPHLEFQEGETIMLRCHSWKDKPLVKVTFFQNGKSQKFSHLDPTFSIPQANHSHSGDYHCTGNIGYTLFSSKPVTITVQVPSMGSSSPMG

Binder | He/Con_2aH
B1 | 103 % of GpH7-A5/GpH7-B3/GpL16-k0 (=100)
B2 | 103 % of GpH7-A5/GpH7-B3/GpL16-k0 (=100)
B3 | 108 % of GpH7-A5/GpH7-B3/GpL16-k0 (=100)
B4 | 117 % of GpH7-A5/GpH7-B3/GpL16-k0 (=100)
B5 | 102 % of GpH7-A5/GpH7-B3/GpL16-k0 (=100)
B6 | 120 % of GpH7-A5/GpH7-B3/GpL16-k0 (=100)
B7 | 107 % of GpH7-A5/GpH7-B3/GpL16-k0 (=100)
B8 | 114 % of GpH7-A5/GpH7-B3/GpL16-k0 (=100)
B9 | 106 % of GpH7-A5/GpH7-B3/GpL16-k0 (=100)
B10 | 103 % of GpH7-A5/GpH7-B3/GpL16-k0 (=100)
B11 | 105 % of GpH7-A5/GpH7-B3/GpL16-k0 (=100)
B12 | 106 % of GpH7-A5/GpH7-B3/GpL16-k0 (=100)
B13 | 108 % of GpH7-A5/GpH7-B3/GpL16-k0 (=100)
B14 | 102 % of GpH7-A5/GpH7-B3/GpL16-k0 (=100)
B15 | 102 % of GpH7-A5/GpH7-B3/GpL16-k0 (=100)
B16 | 103 % of GpH7-A5/GpH7-B3/GpL16-k0 (=100)
B17 | 103 % of GpH7-A5/GpH7-B3/GpL16-k0 (=100)
B18 | 103 % of GpH7-A5/GpH7-B3/GpL16-k0 (=100)
B19 | 101 % of GpH7-A5/GpH7-B3/GpL16-k0 (=100)
B20 | 106 % of GpH7-A5/GpH7-B3/GpL16-k0 (=100)
